Where two headings read alike, the source gives them in different places.
Columns and labels:
[1] = in mice; cited from earlier work
[2] = in rodents; cited from earlier work
[3] = in apes; cited from earlier work
[4] = test system: ASPC-1/PSC xenografts; test: PSC/ASPC-1 subcutaneous xenograft in athymic nude mice; assay type: in vivo; conditions: TLY012 IV 10 mg/kg every other day and/or sorafenib 20 mg/kg oral everyday for 2 weeks
Experimental: Six-week-old athymic nude mice were anesthetized for all procedures 5×10^6ASPC-1 cells (human pancreas adenocarcinoma ascites metastasis cell line derived from nude mouse xenografts initiated with cells from the ascites of a patient with cancer of the pancreas) were mixed with 5×10^4 PSC cells and injected in a subcutaneous in athymic nude mice. Before injection, the cells were trypsinized, counted, washed twice in 1×PBS and resuspended in 100 μl of Matrigel® matrix (Corning), and injected between the scapulae. Two weeks after the tumor transplantation, mice were injected with TLY012 via intravenous (IV) injection (10 mg/kg, every other day) for 2 weeks, while control mice received PBS. Western blot was performed on tissue extracts with antibodies against GAPDH (Santa Cruz 5 Biotechnology, sc-1694), α-SMA (Sigma, A2547), GRP78 (Santa Cruz Biotechnology, sc-13968), DR4 (Abcam, Cambridge, Mass., #13890), DR5 (Abcam, #47179), PDGF-Rb (Santa Cruz Biotechnology, sc-432), and Cl.PARP-1 (Cell Signaling Technology, #5625).
Comparative quantitative RT-PCR (qPCR) was performed in the tumor sample for fibrogenic markers. qPCR was performed in triplicate for each sample using fast SYBR Green Master Mix (Thermo Fisher Scientific) and StepOnePlus Real-Time PCR System (Thermo Fisher Scientific). The expression levels of target genes were normalized to the expression of 18s and calculated based on the comparative cycle threshold Ct method (2^−ΔΔCt).
Collagen deposition was detected with Masson's Trichrome staining and microscopy.
Mouse xenografts were generated as in Example 8. Two weeks after the tumor transplantation, mice were injected with TLY012 via intravenous (IV) injection (10 mg/kg, every other day) and/or sorafenib (20 mg/kg, oral everyday) for 2 weeks. The mice were euthanized when the tumor volume reached 1500 mm^3 and images of the excised xenografts recorded and tumor weight measured.

**Q.** For “10K-PEG-TRAIL: 10K PEG derivatized TRAIL reported by Kim et al. 2011a”, which circulating half-life [1] is on record?
**A.** 6.2 h

**Q.** What does the source list for “TRAIL: Tumor necrosis factor-related apoptosis-inducing ligand, unmodified, literature values”?
**A.** half-life [2]: several minutes; circulating half-life [1]: 1.1 h; half-life [3]: about 30 minutes

**Q.** With “20K-PEG-TRAIL: 20K PEG derivatized TRAIL reported by Kim et al. 2011a” as the compound, how does the circulating half-life [1] read?
**A.** 12.3 h

**Q.** For “30K-PEG-TRAIL: 30K PEG derivatized TRAIL reported by Kim et al. 2011a”, which circulating half-life [1] is on record?
**A.** 17.7 h

**Q.** With CNC(=O)c1cc(Oc2ccc(NC(=O)Nc3ccc(Cl)c(C(F)(F)F)c3)cc2)ccn1 [Sorafenib, reference compound] as the compound, how does the “tumor weight, Mean” value [4] read?
**A.** 967 mg

**Q.** With “2K-PEG-TRAIL: 2K PEG derivatized TRAIL reported by Kim et al. 2011a” as the compound, how does the circulating half-life [1] read?
**A.** 3.9 h

**Q.** With “5K-PEG-TRAIL: 5K PEG derivatized TRAIL reported by Kim et al. 2011a” as the compound, how does the circulating half-life [1] read?
**A.** 5.3 h

Reference: US11767353B2, “Trail compositions with reduced immunogenicity” (Theraly Fibrosis, Inc., priority 2020, dated 2023)
